{
  "source": "patent US20090035321A1",
  "about": "“Intercellular adhesion molecules and their binding ligands” (Boehringer Ingelheim Pharmaceuticals, Inc., published 2009)",
  "binders": {"B1": {"name": "human rhinovirus 14 (HRV14) (other)", "chain": "GAQVSTQKSGSHENQNILTNGSNQTFTVINYYKDAASTSSAGQSLSMDPSKFTEPVKDLMLKGAPALNSPNVEACGYSDRVQQITLGNSTITTQEAANAVVCYAEWPEYLPDVDASDVNKTSKPDTSVCRFYTLDSKTWTTGSKGWCWKLPDALKDMGVFGQNMFFHSLGRSGYTVHVQCNATKFHSGCLLVVVIPEHQLASHEGGNVSVKYTFTHPGERGIDLSSANEVGGPVKDVIYNMNGTLLGNLLIFPHQFINLRTNNTATIVIPYINSVPIDSMTRHNNVSLMVIPIAPLTVPTGATPSLPITVTIAPMCTEFSGIRSKSIVPQGLPTTTLPGSGQFLTTDDRQSPSALPNYEPTPRIHIPGKVHNLLEIIQVDTLIPMNNTHTKDEVNSYLIPLNANRQNEQVFGTNLFIGDGVFKTTLLGEIVQYYTHWSGSLRFSLMYTGPALSSAKLILAYTPPGARGPQDRREAMLGTHVVWDIGLQSTIVMTIPWTSGVQFRYTDPDTYTSAGFLSCWYQTSLILPPETTGQVYLLSFISACPDFKLRLMKDTQTISQTVALTEGLGDELEEVIVEKTKQTVASISSGPKHTQKVPILTANETGATMPVLPSDSIETRTTYMHFNGSETDVECFLGRAACVHVTEIQNKDATGIDNHREAKLFNDWKINLSSLVQLRKKLELFTYVRFDSEYTILATASQPDSANYSSNLVVQAMYVPPGAPNPKEWDDYTWQSASNPSVFFKVGDTSRFSVPYVGLASAYNCFYDGYSHDDAETQYGITVLNHMGSMAFRIVNEHDEHKTLVKIRVYHRAKHVEAWIPRAPRALPYTSIGRTNYPKNTEPVIKKRKGDIKSY", "modifications": "[35S]-Met labeled"}},
  "assay_in_all_cases": "35S-HRV14 on COS cells",
  "key": {"[1]": {"biological_target": "ICAM-1 E59/Q (human, UniProt P05362)", "procedure": "(§1) COS cells were seeded into 10 cm tissue culture plates such that they would be 50% confluent by 16-24 hrs. COS cells were then washed once with TBS and incubated for 4 hrs with 4 ml RPMI containing 10% Nu sera (Collaborative) 5 pg/ml chloroquine, 3 μg of mutant plasmid and 200 μg/ml DEAE-dextran sulfate. Cells were then washed with 10% DMSO/PBS followed by PBS and cultured 16 hrs in culture media. Culture media was replaced with fresh media and at 48 hrs post transfection (OS cells were suspended by trypsin/EDTA (Gibco) treatment and divided into 2, 10 cm plates as well as 24 well tissue culture plates for HRV binding. At 72 hrs cells were harvested from 10 cm plates with 5 mM EDTA/HBSS and processed for adhesion to LFA-1 coated plastic and immunofluorescence.\n(§2) Binding occurred in 1 hr at 35° C. in a 5% CO₂ atmosphere with horizontal rotation (100 rpm). Unbound [³⁵S] HRV14 was aspirated, COS cells were gently washed with 150 ml of HRV buffer and then solubilized with 1% SDS in PBS for scintillation counting.\n(§3) In Table 25, the notation for the mutations uses the one-letter code for the wild-type sequence followed by a slash and the one-letter code for the corresponding mutant sequence. The position of the first amino acid within the sequence is indicated. Wild type residues precede the slash followed by the residues they were substituted for in the mutant. COS cells expressing ICAM-1 mutants were tested for adherence to LFA-1 coated plastic and for binding 35S met-labeled HRV14. […] Binding is presented as mean and standard error (SE) for multiple experiments (n). […] The specific linear fluorescence intensity (SLFI) of CL203 for each mutant is normalized to that of wild type CL203 SLFI (% WT) as discussed above. The SLFI of RR1/1, R6.5 and LB-2 SLFI is normalized to the CL203 SLFI of the mutant (% CL203) as described above."}, "[2]": {"biological_target": "ICAM-1 D60/K (human, UniProt P05362)", "procedure": "as §1, §2, §3"}, "[3]": {"biological_target": "ICAM-1 Q58/H (human, UniProt P05362)", "procedure": "as §1, §2, §3"}, "[4]": {"biological_target": "ICAM-1 A178/G (human, UniProt P05362)", "procedure": "as §1, §2, §3"}, "[5]": {"biological_target": "ICAM-1 Q1/K (human, UniProt P05362)", "procedure": "as §1, §2, §3"}, "[6]": {"biological_target": "ICAM-1 D213GL/HGV (human, UniProt P05362)", "procedure": "as §1, §2, §3"}, "[7]": {"biological_target": "ICAM-1 Y52/F (human, UniProt P05362)", "procedure": "as §1, §2, §3"}, "[8]": {"biological_target": "ICAM-1 Q27/L (human, UniProt P05362)", "procedure": "as §1, §2, §3"}, "[9]": {"biological_target": "ICAM-1 R13/K (human, UniProt P05362)", "procedure": "as §1, §2, §3"}, "[10]": {"biological_target": "ICAM-1 V136GE/GVK (human, UniProt P05362)", "procedure": "as §1, §2, §3"}, "[11]": {"biological_target": "ICAM-1 S74/A (human, UniProt P05362)", "procedure": "as §1, §2, §3"}, "[12]": {"biological_target": "ICAM-1 E34/A (human, UniProt P05362)", "procedure": "as §1, §2, §3"}, "[13]": {"biological_target": "ICAM-1 R149RD/EEG (human, UniProt P05362)", "procedure": "as §1, §2, §3"}, "[14]": {"biological_target": "ICAM-1 N240DS/KNA (human, UniProt P05362)", "procedure": "as §1, §2, §3"}, "[15]": {"biological_target": "ICAM-1 D26QPK/ALPE (human, UniProt P05362)", "procedure": "as §1, §2, §3"}, "[16]": {"biological_target": "ICAM-1 K50V/EL (human, UniProt P05362)", "procedure": "as §1, §2, §3"}, "[17]": {"biological_target": "ICAM-1 N118/Q (human, UniProt P05362)", "procedure": "as §1, §2, §3"}, "[18]": {"biological_target": "ICAM-1 E127/R (human, UniProt P05362)", "procedure": "as §1, §2, §3"}, "[19]": {"biological_target": "ICAM-1 L91/A (human, UniProt P05362)", "procedure": "as §1, §2, §3"}, "[20]": {"biological_target": "ICAM-1 Q73/H (human, UniProt P05362)", "procedure": "as §1, §2, §3"}, "[21]": {"biological_target": "ICAM-1 E59/K (human, UniProt P05362)", "procedure": "as §1, §2, §3"}, "[22]": {"biological_target": "ICAM-1 K77T/ES (human, UniProt P05362)", "procedure": "as §1, §2, §3"}, "[23]": {"biological_target": "ICAM-1 N68/K (human, UniProt P05362)", "procedure": "as §1, §2, §3"}, "[24]": {"biological_target": "ICAM-1 E90/Q (human, UniProt P05362)", "procedure": "as §1, §2, §3"}, "[25]": {"biological_target": "ICAM-1 R13/E (human, UniProt P05362)", "procedure": "as §1, §2, §3"}, "[26]": {"biological_target": "ICAM-1 G101K/AN (human, UniProt P05362)", "procedure": "as §1, §2, §3"}, "[27]": {"biological_target": "ICAM-1 S61/I (human, UniProt P05362)", "procedure": "as §1, §2, §3"}, "[28]": {"biological_target": "ICAM-1 D60S/KL (human, UniProt P05362)", "procedure": "as §1, §2, §3"}, "[29]": {"biological_target": "ICAM-1 Q58EDS/AKDI (human, UniProt P05362)", "procedure": "as §1, §2, §3"}},
  "data": [
    {"binder": "B1", "values": [
      {"measurement": "HRV Binding %", "setting": "[1]", "result": "92 % of wild type"},
      {"measurement": "HRV Binding %", "setting": "[2]", "result": "4 % of wild type"},
      {"measurement": "HRV Binding %", "setting": "[3]", "result": "1 % of wild type"},
      {"measurement": "HRV Binding %", "setting": "[4]", "result": "102 % of wild type"},
      {"measurement": "HRV Binding %", "setting": "[5]", "result": "78 % of wild type"},
      {"measurement": "HRV Binding %", "setting": "[6]", "result": "99 % of wild type"},
      {"measurement": "HRV Binding %", "setting": "[7]", "result": "174 % of wild type"},
      {"measurement": "HRV Binding %", "setting": "[8]", "result": "57 % of wild type"},
      {"measurement": "HRV Binding %", "setting": "[9]", "result": "123 % of wild type"},
      {"measurement": "HRV Binding %", "setting": "[10]", "result": "117 % of wild type"},
      {"measurement": "HRV Binding %", "setting": "[11]", "result": "156 % of wild type"},
      {"measurement": "HRV Binding %", "setting": "[12]", "result": "66 % of wild type"},
      {"measurement": "HRV Binding %", "setting": "[13]", "result": "139 % of wild type"},
      {"measurement": "HRV Binding %", "setting": "[14]", "result": "82 % of wild type"},
      {"measurement": "HRV Binding %", "setting": "[15]", "result": "13 % of wild type"},
      {"measurement": "HRV Binding %", "setting": "[16]", "result": "10 % of wild type"},
      {"measurement": "HRV Binding %", "setting": "[17]", "result": "110 % of wild type"},
      {"measurement": "HRV Binding %", "setting": "[18]", "result": "131 % of wild type"},
      {"measurement": "HRV Binding %", "setting": "[19]", "result": "105 % of wild type"},
      {"measurement": "HRV Binding %", "setting": "[20]", "result": "117 % of wild type"},
      {"measurement": "HRV Binding %", "setting": "[21]", "result": "105 % of wild type"},
      {"measurement": "HRV Binding %", "setting": "[22]", "result": "42 % of wild type"},
      {"measurement": "HRV Binding %", "setting": "[23]", "result": "137 % of wild type"},
      {"measurement": "HRV Binding %", "setting": "[24]", "result": "157 % of wild type"},
      {"measurement": "HRV Binding %", "setting": "[25]", "result": "10 % of wild type"},
      {"measurement": "HRV Binding %", "setting": "[26]", "result": "140 % of wild type"},
      {"measurement": "HRV Binding %", "setting": "[27]", "result": "111 % of wild type"},
      {"measurement": "HRV Binding %", "setting": "[28]", "result": "1 % of wild type"},
      {"measurement": "HRV Binding %", "setting": "[29]", "result": "0 % of wild type"}
    ]}
  ]
}
